Test results published in patent US20170052184A1 (published 2017).
Ends that are not written are not given here.

B1: 208B-612-226 monoclonal antibody (antibody, V domains shown)
VH: EVQLQQSGPELVKPGASVKMSCKASGYRFTSYVMHWVRQKPGQGLEWIGYIDPHNDDTKYSEKFRGKATLTSDKSSTTAYMELSSLTSEDSAVYYCVRYSYDRDYSPMDYWGQGTSVTVSS
VL: QIVLTQSPTLMSASPGEKVTMTCSASSTVTYIYWYQQKPGSSPRLWMYDTFNLVSGVPARFSGSRSGTSYFLTISSMEGEDAATYYCQQYSDSPYTFGGGTKLEIKR
B2: Neo4 monoclonal antibody (antibody, V domains shown)
VH: QIQLKESGPAVIKPSQSLSLTCIVSGFSITSSVYCWQWIRQPPGKGLEWMGRICYDGSVDYSPSITSRGTISRDTSLNKVFFQLSSVTNEDTAMYYCSRENHIDYYDTTYPSFDVWGAGTTVTVSS
VL: DIVLTQSPASLIVSLGQRATISCRASKSVNEYGYTYMHWYQQKPGLPPKLLIYLASNLDSGVPARFSGSGSGTDFTLNIHPVEEEDAATYYCQHSRELPYTFGGGTKLEIKR
notes: also called HCV Neo4

What was measured:
[1] = target: T1, HCV Core1-169 recombinant antigen (hepatitis C virus (HCV-1), UniProt P26664 1-169); experiment: sandwich EIA, 25 ng/ml core1-169; capture mAb 208A-293
T1 sequence: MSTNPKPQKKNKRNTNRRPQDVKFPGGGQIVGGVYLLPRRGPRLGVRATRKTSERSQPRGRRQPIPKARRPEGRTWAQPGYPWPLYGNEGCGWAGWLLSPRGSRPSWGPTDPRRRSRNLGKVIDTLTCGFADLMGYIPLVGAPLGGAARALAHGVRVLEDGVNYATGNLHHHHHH

[2] = target: T1, HCV Core1-169 recombinant antigen; experiment: sandwich EIA, 25 ng/ml core1-169; capture mAb C11-9
[3] = target: T1, HCV Core1-169 recombinant antigen; experiment: sandwich EIA, 25 ng/ml core1-169; capture mAb 208B-395-334
[4] = target: T1, HCV Core1-169 recombinant antigen; experiment: sandwich EIA, 25 ng/ml core1-169; capture mAb 208A-207-271
[5] = target: T1, HCV Core1-169 recombinant antigen; experiment: sandwich EIA, 25 ng/ml core1-169; capture mAb C11-7
[6] = target: T1, HCV Core1-169 recombinant antigen; experiment: sandwich EIA, 25 ng/ml core1-169; capture mAb 208B-741
[7] = target: T1, HCV Core1-169 recombinant antigen; experiment: sandwich EIA, 25 ng/ml core1-169; capture mAb 208A-557
[8] = target: T1, HCV Core1-169 recombinant antigen; experiment: sandwich EIA, 25 ng/ml core1-169; capture mAb 208B-612-226
[9] = target: T1, HCV Core1-169 recombinant antigen; experiment: sandwich EIA, 25 ng/ml core1-169; capture mAb 208A-110
[10] = target: T1, HCV Core1-169 recombinant antigen; experiment: sandwich EIA, 25 ng/ml core1-169; capture mAb 208B-1096
[11] = target: T1, HCV Core1-169 recombinant antigen; experiment: sandwich EIA, 25 ng/ml core1-169; capture mAb 208A-692
[12] = target: T1, HCV Core1-169 recombinant antigen; experiment: sandwich EIA, 25 ng/ml core1-169; capture NC capture mAb
[13] = target: T2, C113T110N biotin labeled HCV core peptide (Hepatitis C virus, also: biotin label, position not given here); experiment: EIA, captured mAb + biotin peptide
T2 peptide: RGSRPSWGPND

[14] = target: T3, C113WT biotin labeled HCV core peptide (Hepatitis C virus, also: biotin label, position not given here); experiment: EIA, captured mAb + biotin peptide
T3 peptide: RGSRPSWGPTD

| Binder | OD492 nm [1] | OD492 nm [2] | OD492 nm [3] | OD492 nm [4] | OD492 nm [5] | OD492 nm [6] | OD492 nm [7] | OD492 nm [8] | OD492 nm [9] | OD492 nm [10] | OD492 nm [11] | OD492 nm [12] | binding result [13] | binding result [14] |
| --- | --- | --- | --- | --- | --- | --- | --- | --- | --- | --- | --- | --- | --- | --- |
| B1 | 0.28 OD492 | 0.64 OD492 | 0.83 OD492 | 0.24 OD492 | 1.52 OD492 | 0.23 OD492 | 0.23 OD492 | 0.23 OD492 | 0.26 OD492 | 0.7 OD492 | 0.18 OD492 | 0.21 OD492 |  |  |
| B2 |  |  |  |  |  |  |  |  |  |  |  |  | no binding | no binding |
